In patent US20230357362A1:
Each block holds one substance with its values, some of them ahead of it.

Assays:
[1] = molecular target: Desmoplakin OS = Homo sapiens GN = DSP PE = 1 SV = 3 (Homo sapiens) (UniProt P15924); assay: co-IP with M53 from SW480 lysate, LC-MS
[2] = molecular target: Isoform 2 of Plectin OS = Homo sapiens GN = PLEC (Homo sapiens) (UniProt Q15149); assay: co-IP with M53 from SW480 lysate, LC-MS
[3] = molecular target: Isoform 2 of 40S ribosomal protein S20 OS = Homo (name cut off as printed) (Homo sapiens) (UniProt P60866); assay: co-IP with M53 from SW480 lysate, LC-MS
[4] = molecular target: Isoform 2 of Glyceraldehyde-3-phosphate (name cut off as printed) (UniProt P04406); assay: co-IP with M53 from SW480 lysate, LC-MS
[5] = molecular target: Heat shock protein beta-1 OS = Homo sapiens (Homo sapiens) (UniProt P04792); assay: co-IP with M53 from SW480 lysate, LC-MS
[6] = molecular target: Isoform 2 of ATP synthase subunit alpha, mitochondrial (UniProt P25705); assay: co-IP with M53 from SW480 lysate, LC-MS
[7] = molecular target: Cytoplasmic dynein 1 heavy chain 1 OS = Homo sapiens (Homo sapiens) (UniProt Q14204); assay: co-IP with M53 from SW480 lysate, LC-MS
[8] = molecular target: Heat shock cognate 71 kDa protein OS = Homo sapiens (Homo sapiens) (UniProt P11142); assay: co-IP with M53 from SW480 lysate, LC-MS
[9] = molecular target: Junction plakoglobin OS = Homo sapiens GN = JUP PE = 1 (Homo sapiens) (UniProt P14923); assay: co-IP with M53 from SW480 lysate, LC-MS
[10] = molecular target: 40S ribosomal protein S3 OS = Homo sapiens GN = RPS3 (Homo sapiens) (UniProt P23396); assay: co-IP with M53 from SW480 lysate, LC-MS
[11] = molecular target: Tubulin beta chain OS = Homo sapiens GN = TUBB PE = 1 (Homo sapiens) (UniProt P07437); assay: co-IP with M53 from SW480 lysate, LC-MS
[12] = molecular target: Isoform 2 of Annexin A2 OS = Homo sapiens GN = ANXA2 (Homo sapiens) (UniProt P07355); assay: co-IP with M53 from SW480 lysate, LC-MS
[13] = molecular target: 40S ribosomal protein S15a OS = Homo sapiens (Homo sapiens) (UniProt P62244); assay: co-IP with M53 from SW480 lysate, LC-MS
[14] = molecular target: Histone H4 OS = Homo sapiens GN = HIST1H4A PE = 1 (Homo sapiens) (UniProt P62805); assay: co-IP with M53 from SW480 lysate, LC-MS
[15] = molecular target: Myosin-9 OS = Homo sapiens GN = MYH9 PE = 1 SV = 4 (Homo sapiens) (UniProt P35579); assay: co-IP with M53 from SW480 lysate, LC-MS
[16] = molecular target: ADP/ATP translocase 3 OS = Homo sapiens GN = SLC25A6 (Homo sapiens) (UniProt P12236); assay: co-IP with M53 from SW480 lysate, LC-MS
[17] = molecular target: ATP synthase subunit beta, mitochondrial OS = Homo (name cut off as printed) (Homo sapiens) (UniProt P06576); assay: co-IP with M53 from SW480 lysate, LC-MS
[18] = molecular target: DNA-dependent protein kinase catalytic subunit (UniProt P78527); assay: co-IP with M53 from SW480 lysate, LC-MS
[19] = molecular target: Heat shock protein HSP 90-alpha OS = Homo sapiens (Homo sapiens) (UniProt P07900); assay: co-IP with M53 from SW480 lysate, LC-MS
[20] = molecular target: Tubulin beta-4B chain OS = Homo sapiens GN = TUBB4B (Homo sapiens) (UniProt P68371); assay: co-IP with M53 from SW480 lysate, LC-MS
[21] = molecular target: Desmoplakin OS = Homo sapiens GN = DSP PE = 1 SV = 3 (Homo sapiens) (UniProt P15924); assay: IP with isotype IgG control from SW480 lysate, LC-MS (negative control)
[22] = molecular target: Isoform 2 of Plectin OS = Homo sapiens GN = PLEC (Homo sapiens) (UniProt Q15149); assay: as above
[23] = molecular target: Isoform 2 of 40S ribosomal protein S20 OS = Homo (name cut off as printed) (Homo sapiens) (UniProt P60866); assay: as above
[24] = molecular target: Isoform 2 of Glyceraldehyde-3-phosphate (name cut off as printed) (UniProt P04406); assay: as above
[25] = molecular target: Heat shock protein beta-1 OS = Homo sapiens (Homo sapiens) (UniProt P04792); assay: as above
[26] = molecular target: Isoform 2 of ATP synthase subunit alpha, mitochondrial (UniProt P25705); assay: as above
[27] = molecular target: Cytoplasmic dynein 1 heavy chain 1 OS = Homo sapiens (Homo sapiens) (UniProt Q14204); assay: as above
[28] = molecular target: Heat shock cognate 71 kDa protein OS = Homo sapiens (Homo sapiens) (UniProt P11142); assay: as above
[29] = molecular target: Junction plakoglobin OS = Homo sapiens GN = JUP PE = 1 (Homo sapiens) (UniProt P14923); assay: as above
[30] = molecular target: 40S ribosomal protein S3 OS = Homo sapiens GN = RPS3 (Homo sapiens) (UniProt P23396); assay: as above
[31] = molecular target: Tubulin beta chain OS = Homo sapiens GN = TUBB PE = 1 (Homo sapiens) (UniProt P07437); assay: as above
[32] = molecular target: endogenous fibronectin of human CRC cells (Isoform 10 of Fibronectin OS = Homo sapiens GN = FN1) (Homo sapiens) (UniProt P02751); assay: as above
[33] = molecular target: Isoform 2 of Annexin A2 OS = Homo sapiens GN = ANXA2 (Homo sapiens) (UniProt P07355); assay: as above
[34] = molecular target: 40S ribosomal protein S15a OS = Homo sapiens (Homo sapiens) (UniProt P62244); assay: as above
[35] = molecular target: Histone H4 OS = Homo sapiens GN = HIST1H4A PE = 1 (Homo sapiens) (UniProt P62805); assay: as above
[36] = molecular target: Myosin-9 OS = Homo sapiens GN = MYH9 PE = 1 SV = 4 (Homo sapiens) (UniProt P35579); assay: as above
[37] = molecular target: ADP/ATP translocase 3 OS = Homo sapiens GN = SLC25A6 (Homo sapiens) (UniProt P12236); assay: as above
[38] = molecular target: ATP synthase subunit beta, mitochondrial OS = Homo (name cut off as printed) (Homo sapiens) (UniProt P06576); assay: as above
[39] = molecular target: DNA-dependent protein kinase catalytic subunit (UniProt P78527); assay: as above
[40] = molecular target: Heat shock protein HSP 90-alpha OS = Homo sapiens (Homo sapiens) (UniProt P07900); assay: as above
[41] = molecular target: Tubulin beta-4B chain OS = Homo sapiens GN = TUBB4B (Homo sapiens) (UniProt P68371); assay: as above

Sequence of dysadherin (FXYD5) as expressed in human CRC cells (endogenous in SW480 cells; overexpressed in HCT116 cells) (Q96DB9 22-178): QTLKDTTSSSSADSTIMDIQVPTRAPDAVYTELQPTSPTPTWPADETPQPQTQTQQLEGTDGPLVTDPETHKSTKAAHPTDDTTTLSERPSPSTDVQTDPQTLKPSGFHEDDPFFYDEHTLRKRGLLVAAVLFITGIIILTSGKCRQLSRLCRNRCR
Sequence of DNA-dependent protein kinase catalytic subunit (P78527 whole entry): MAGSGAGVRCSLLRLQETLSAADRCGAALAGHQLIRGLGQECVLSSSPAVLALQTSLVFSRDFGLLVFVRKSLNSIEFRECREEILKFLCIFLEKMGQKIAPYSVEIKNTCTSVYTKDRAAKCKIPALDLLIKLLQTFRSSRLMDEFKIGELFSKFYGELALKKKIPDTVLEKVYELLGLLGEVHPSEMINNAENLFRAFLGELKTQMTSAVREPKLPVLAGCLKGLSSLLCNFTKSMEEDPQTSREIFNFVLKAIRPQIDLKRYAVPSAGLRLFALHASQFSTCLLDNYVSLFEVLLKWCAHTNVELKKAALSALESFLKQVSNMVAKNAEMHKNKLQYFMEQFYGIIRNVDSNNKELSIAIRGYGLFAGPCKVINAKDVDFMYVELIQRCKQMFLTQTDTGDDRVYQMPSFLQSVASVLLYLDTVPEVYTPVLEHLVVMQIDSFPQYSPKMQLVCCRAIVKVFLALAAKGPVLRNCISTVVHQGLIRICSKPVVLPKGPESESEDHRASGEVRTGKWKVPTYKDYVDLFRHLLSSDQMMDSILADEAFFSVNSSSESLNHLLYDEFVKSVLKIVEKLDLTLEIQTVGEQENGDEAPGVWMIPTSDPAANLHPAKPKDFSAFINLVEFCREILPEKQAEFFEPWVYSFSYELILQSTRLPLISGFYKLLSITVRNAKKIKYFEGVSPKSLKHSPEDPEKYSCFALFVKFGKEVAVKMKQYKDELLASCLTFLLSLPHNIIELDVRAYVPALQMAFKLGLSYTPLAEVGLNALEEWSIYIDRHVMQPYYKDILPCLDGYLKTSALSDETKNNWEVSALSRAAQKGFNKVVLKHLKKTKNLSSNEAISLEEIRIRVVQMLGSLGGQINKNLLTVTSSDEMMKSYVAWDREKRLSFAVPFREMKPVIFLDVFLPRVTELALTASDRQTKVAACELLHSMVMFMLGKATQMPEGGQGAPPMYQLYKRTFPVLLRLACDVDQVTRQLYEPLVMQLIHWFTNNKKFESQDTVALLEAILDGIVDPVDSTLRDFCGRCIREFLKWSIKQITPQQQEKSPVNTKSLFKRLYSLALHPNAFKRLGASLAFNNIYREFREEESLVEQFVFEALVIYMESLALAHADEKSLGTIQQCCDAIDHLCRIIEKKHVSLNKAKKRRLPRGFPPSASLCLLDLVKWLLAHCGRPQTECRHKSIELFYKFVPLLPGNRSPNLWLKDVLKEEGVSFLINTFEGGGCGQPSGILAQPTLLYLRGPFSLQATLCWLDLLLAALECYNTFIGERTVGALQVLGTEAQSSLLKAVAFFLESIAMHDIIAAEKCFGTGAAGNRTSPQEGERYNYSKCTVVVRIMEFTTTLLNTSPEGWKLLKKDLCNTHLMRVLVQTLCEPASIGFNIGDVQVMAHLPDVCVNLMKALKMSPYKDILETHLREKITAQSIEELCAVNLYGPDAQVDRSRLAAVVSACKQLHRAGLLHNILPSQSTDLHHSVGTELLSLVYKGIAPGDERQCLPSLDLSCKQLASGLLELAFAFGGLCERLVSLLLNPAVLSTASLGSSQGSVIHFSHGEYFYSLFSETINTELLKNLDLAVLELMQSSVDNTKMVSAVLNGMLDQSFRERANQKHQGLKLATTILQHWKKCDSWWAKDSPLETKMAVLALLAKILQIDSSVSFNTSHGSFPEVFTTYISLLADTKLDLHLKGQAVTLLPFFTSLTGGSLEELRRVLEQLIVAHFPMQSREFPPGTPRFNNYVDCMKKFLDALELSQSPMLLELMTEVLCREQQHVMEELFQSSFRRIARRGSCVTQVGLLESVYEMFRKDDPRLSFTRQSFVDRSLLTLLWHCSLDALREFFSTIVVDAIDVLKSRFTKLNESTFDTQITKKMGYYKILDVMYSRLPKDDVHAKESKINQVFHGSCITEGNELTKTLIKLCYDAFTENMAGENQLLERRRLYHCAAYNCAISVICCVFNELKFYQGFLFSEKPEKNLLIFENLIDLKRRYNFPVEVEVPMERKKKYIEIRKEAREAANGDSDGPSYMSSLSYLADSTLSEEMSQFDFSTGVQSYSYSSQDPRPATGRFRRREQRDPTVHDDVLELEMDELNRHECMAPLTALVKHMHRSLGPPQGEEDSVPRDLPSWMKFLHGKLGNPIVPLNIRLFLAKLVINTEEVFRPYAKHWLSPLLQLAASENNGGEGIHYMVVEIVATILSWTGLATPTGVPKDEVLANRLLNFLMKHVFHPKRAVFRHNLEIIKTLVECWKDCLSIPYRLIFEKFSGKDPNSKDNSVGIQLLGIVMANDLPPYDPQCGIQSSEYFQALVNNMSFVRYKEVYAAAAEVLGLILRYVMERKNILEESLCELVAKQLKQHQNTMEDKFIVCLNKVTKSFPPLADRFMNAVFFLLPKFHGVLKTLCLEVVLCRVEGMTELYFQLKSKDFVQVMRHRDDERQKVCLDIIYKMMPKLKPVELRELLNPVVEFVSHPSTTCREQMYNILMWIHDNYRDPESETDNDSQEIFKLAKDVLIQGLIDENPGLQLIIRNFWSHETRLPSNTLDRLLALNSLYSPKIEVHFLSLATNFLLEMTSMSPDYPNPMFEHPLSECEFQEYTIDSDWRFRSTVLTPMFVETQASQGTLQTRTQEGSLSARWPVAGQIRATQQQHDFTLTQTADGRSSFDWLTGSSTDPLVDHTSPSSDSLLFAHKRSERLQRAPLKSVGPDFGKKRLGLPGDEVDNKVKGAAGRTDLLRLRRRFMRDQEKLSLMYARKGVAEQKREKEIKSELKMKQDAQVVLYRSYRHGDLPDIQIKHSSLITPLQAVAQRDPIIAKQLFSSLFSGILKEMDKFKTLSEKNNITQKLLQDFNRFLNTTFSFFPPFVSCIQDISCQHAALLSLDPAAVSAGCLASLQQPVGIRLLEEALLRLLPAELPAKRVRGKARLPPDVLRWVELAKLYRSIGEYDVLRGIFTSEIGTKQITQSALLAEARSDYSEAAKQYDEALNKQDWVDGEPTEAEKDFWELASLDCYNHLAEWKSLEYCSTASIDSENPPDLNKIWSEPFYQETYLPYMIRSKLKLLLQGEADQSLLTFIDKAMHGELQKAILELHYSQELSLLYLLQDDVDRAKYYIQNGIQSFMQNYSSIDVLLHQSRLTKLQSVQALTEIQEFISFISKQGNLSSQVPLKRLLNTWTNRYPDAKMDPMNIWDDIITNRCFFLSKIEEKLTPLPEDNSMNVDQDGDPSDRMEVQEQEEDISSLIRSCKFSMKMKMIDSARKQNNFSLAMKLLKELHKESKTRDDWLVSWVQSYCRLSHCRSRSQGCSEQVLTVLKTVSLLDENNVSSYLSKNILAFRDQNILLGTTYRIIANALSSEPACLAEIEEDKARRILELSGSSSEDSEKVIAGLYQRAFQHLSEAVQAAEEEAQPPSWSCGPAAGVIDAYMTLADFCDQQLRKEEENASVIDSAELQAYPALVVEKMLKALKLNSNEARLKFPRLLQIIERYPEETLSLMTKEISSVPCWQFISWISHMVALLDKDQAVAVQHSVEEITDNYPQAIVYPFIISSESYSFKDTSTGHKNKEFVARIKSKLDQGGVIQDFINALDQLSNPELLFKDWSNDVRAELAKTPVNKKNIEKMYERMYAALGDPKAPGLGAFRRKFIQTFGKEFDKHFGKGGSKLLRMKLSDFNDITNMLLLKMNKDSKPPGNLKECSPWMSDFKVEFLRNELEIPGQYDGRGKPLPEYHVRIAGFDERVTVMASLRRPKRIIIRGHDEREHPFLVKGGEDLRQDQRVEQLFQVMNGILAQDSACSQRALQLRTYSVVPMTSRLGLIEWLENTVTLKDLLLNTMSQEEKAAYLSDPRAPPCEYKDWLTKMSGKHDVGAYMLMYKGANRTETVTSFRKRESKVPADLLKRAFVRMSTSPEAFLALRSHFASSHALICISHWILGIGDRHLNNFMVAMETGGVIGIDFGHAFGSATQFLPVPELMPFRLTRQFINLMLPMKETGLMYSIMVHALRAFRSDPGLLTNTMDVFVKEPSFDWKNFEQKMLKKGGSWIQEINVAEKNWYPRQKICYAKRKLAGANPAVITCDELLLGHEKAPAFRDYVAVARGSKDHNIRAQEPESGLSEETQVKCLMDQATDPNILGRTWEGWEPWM
Sequence of ATP synthase subunit beta, mitochondrial OS = Homo (name cut off as printed) (Homo sapiens) (P06576 48-529 limits assumed): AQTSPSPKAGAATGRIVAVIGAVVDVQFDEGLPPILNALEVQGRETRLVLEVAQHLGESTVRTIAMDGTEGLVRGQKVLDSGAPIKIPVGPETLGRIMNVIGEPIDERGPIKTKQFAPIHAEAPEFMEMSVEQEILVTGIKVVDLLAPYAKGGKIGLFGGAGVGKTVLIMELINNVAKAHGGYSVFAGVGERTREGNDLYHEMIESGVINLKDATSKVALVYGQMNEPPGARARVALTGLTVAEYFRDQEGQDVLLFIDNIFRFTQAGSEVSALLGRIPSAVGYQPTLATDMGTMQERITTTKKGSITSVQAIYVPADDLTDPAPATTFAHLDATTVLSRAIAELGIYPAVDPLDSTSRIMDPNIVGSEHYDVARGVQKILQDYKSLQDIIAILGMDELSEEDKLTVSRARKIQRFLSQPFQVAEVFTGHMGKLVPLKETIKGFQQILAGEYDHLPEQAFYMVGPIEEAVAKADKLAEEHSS
Sequence of Heat shock protein beta-1 OS = Homo sapiens (Homo sapiens) (P04792 whole entry, canonical isoform): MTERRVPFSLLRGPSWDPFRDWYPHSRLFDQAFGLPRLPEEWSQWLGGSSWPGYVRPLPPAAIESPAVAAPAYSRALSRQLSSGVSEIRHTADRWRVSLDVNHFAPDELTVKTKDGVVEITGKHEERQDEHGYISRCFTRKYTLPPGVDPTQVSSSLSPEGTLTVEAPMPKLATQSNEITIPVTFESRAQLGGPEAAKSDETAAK

Probe identification probability [1]: 100%
Probe identification probability [2]: 100%
Probe identification probability [3]: 100%
Probe identification probability [4]: 100%
Probe identification probability [5]: 100%
Probe identification probability [6]: 100%
Probe identification probability [7]: 100%
Probe identification probability [8]: 100%
Probe identification probability [9]: 100%
Probe identification probability [10]: 100%
Probe identification probability [11]: 100%
Probe identification probability [12]: 100%
Probe identification probability [13]: 100%
Probe identification probability [14]: 100%
Probe identification probability [15]: 100%
Probe identification probability [16]: 100%
Probe identification probability [17]: 100%
Probe identification probability [18]: 100%
Probe identification probability [19]: 100%
Probe identification probability [20]: 100%
Substance: dysadherin (FXYD5) as expressed in human CRC cells (endogenous in SW480 cells; overexpressed in HCT116 cells) (from UniProt Q96DB9 22-178)

Probe identification probability [21]: 91%
Probe identification probability [22]: 15%
Probe identification probability [23]: 100%
Probe identification probability [24]: 99%
Probe identification probability [25]: 100%
Probe identification probability [26]: 100%
Probe identification probability [27]: 10%
Probe identification probability [28]: 100%
Probe identification probability [29]: 98%
Probe identification probability [30]: 100%
Probe identification probability [31]: 100%
Probe identification probability [32]: 6%
Probe identification probability [33]: 100%
Probe identification probability [34]: 75%
Probe identification probability [35]: 100%
Probe identification probability [36]: 13%
Probe identification probability [37]: 100%
Probe identification probability [38]: 100%
Probe identification probability [39]: 72%
Probe identification probability [40]: 100%
Probe identification probability [41]: 100%
Substance: isotype IgG control antibody
